Consider 125 sequences from the supplement of paper PMC9112550, “Optimization of the antimicrobial peptide Bac7 by deep mutational scanning” (BMC Biology, 2022).
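Also: peptides expressed intracellularly from a pBAD plasmid library in pooled LB shake-flask culture, induced with 0.3% L-arabinose, DNA abundance read by NGS, three biological replicates, DESeq2 with apeglm shrinkage.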

For the data set, the system named is Escherichia coli TOP10. Kind of data set: shrunken log2 fold change of peptide-encoding DNA abundance (4.5 h post-induction vs induction); higher = less antimicrobial activity (less host growth inhibition). Conditions: time post-induction: 4.5 h; library: site-saturation at positions 5, 18, 19, 20.
RRIRLRPPRLPRPRPRPLLEPRP: the “shrunken log2 fold change” value was -0.0263.

For RRIRMRPPRLPRPRPRPTGMPRP, the “shrunken log2 fold change” value worked out at 0.136.

Turning to RRIRVRPPRLPRPRPRPTDKPRP, the “shrunken log2 fold change” value is -0.0288.

For the sequence RRIRARPPRLPRPRPRPRHPPRP, the “shrunken log2 fold change” value was found to be 0.383.

For the sequence RRIRVRPPRLPRPRPRPAKAPRP, the “shrunken log2 fold change” value amounted to 0.0673.

Regarding RRIRDRPPRLPRPRPRPLMPPRP, the “shrunken log2 fold change” value turned out to be 0.097.

With RRIRVRPPRLPRPRPRPFHKPRP, the “shrunken log2 fold change” value was -0.385.

As to RRIRPRPPRLPRPRPRPNHSPRP, the “shrunken log2 fold change” value was -0.553.

On to RRIRWRPPRLPRPRPRPWFDPRP, for which the “shrunken log2 fold change” value was 2.76.

Take RRIRFRPPRLPRPRPRPVLWPRP: the “shrunken log2 fold change” value was found to be 0.577.

On to RRIRMRPPRLPRPRPRPTFHPRP, for which the “shrunken log2 fold change” value was -0.00995.

RRIRTRPPRLPRPRPRPETTPRP: the “shrunken log2 fold change” value came out at 0.285.

For RRIRVRPPRLPRPRPRPTVYPRP, the “shrunken log2 fold change” value was -0.0885.

Consider RRIRCRPPRLPRPRPRPFDQPRP, for which the “shrunken log2 fold change” value was -0.136.

On to RRIRTRPPRLPRPRPRPFCGPRP, for which the “shrunken log2 fold change” value was -0.0697.

For RRIRTRPPRLPRPRPRPRYAPRP, the “shrunken log2 fold change” value was determined as 0.108.

On to RRIRMRPPRLPRPRPRPWGDPRP, for which the “shrunken log2 fold change” value came out at 0.0652.

For RRIRARPPRLPRPRPRPCGGPRP, the “shrunken log2 fold change” value worked out at 0.425.

Regarding RRIRHRPPRLPRPRPRPHGFPRP, the “shrunken log2 fold change” value was -0.0127.

On to RRIRIRPPRLPRPRPRPQMWPRP, for which the “shrunken log2 fold change” value is -0.171.

As to RRIRNRPPRLPRPRPRPHSEPRP, the “shrunken log2 fold change” value was -0.438.

As to RRIRMRPPRLPRPRPRPTYQPRP, the “shrunken log2 fold change” value is -0.063.

Consider RRIRPRPPRLPRPRPRPNSWPRP, for which the “shrunken log2 fold change” value is -0.299.

RRIRKRPPRLPRPRPRPSEQPRP: the “shrunken log2 fold change” value turned out to be 0.0244.

Turning to RRIRCRPPRLPRPRPRPWVHPRP, the “shrunken log2 fold change” value is -0.169.

As for RRIRHRPPRLPRPRPRPLEWPRP, the “shrunken log2 fold change” value was -0.0135.

As for RRIRRRPPRLPRPRPRPWGQPRP, the “shrunken log2 fold change” value stood at 0.0104.

Regarding RRIRNRPPRLPRPRPRPCMIPRP, the “shrunken log2 fold change” value was -0.143.

Consider RRIRQRPPRLPRPRPRPEQNPRP, for which the “shrunken log2 fold change” value was -0.012.

Turning to RRIRVRPPRLPRPRPRPDAPPRP, the “shrunken log2 fold change” value turned out to be 0.422.

As to RRIRVRPPRLPRPRPRPGCWPRP, the “shrunken log2 fold change” value is 0.594.

In the case of RRIRYRPPRLPRPRPRPSVLPRP, the “shrunken log2 fold change” value was -0.444.

Take RRIRYRPPRLPRPRPRPVHPPRP: the “shrunken log2 fold change” value is -0.186.

Turning to RRIRSRPPRLPRPRPRPDAYPRP, the “shrunken log2 fold change” value is 0.101.

For RRIRTRPPRLPRPRPRPHSMPRP, the “shrunken log2 fold change” value was -0.665.

Regarding RRIRQRPPRLPRPRPRPITSPRP, the “shrunken log2 fold change” value was -0.0775.

For RRIRDRPPRLPRPRPRPEFQPRP, the “shrunken log2 fold change” value came out at 0.4.

With RRIRDRPPRLPRPRPRPYSIPRP, the “shrunken log2 fold change” value is 0.0125.

With RRIRWRPPRLPRPRPRPYIHPRP, the “shrunken log2 fold change” value is -0.405.

As for RRIRMRPPRLPRPRPRPTDQPRP, the “shrunken log2 fold change” value worked out at 1.46.

As for RRIRYRPPRLPRPRPRPWWIPRP, the “shrunken log2 fold change” value is -0.00327.

For the sequence RRIRFRPPRLPRPRPRPGTPPRP, the “shrunken log2 fold change” value came to 0.292.

Consider RRIRLRPPRLPRPRPRPMHCPRP, for which the “shrunken log2 fold change” value was -0.00782.

For RRIRSRPPRLPRPRPRPQCPPRP, the “shrunken log2 fold change” value is -0.172.

With RRIRMRPPRLPRPRPRPRPMPRP, the “shrunken log2 fold change” value is 0.935.

For RRIRFRPPRLPRPRPRPQTGPRP, the “shrunken log2 fold change” value was -0.152.

Take RRIRHRPPRLPRPRPRPKQQPRP: the “shrunken log2 fold change” value is -0.0484.

Take RRIRARPPRLPRPRPRPRVMPRP: the “shrunken log2 fold change” value came out at 0.197.

RRIRPRPPRLPRPRPRPTCGPRP: the “shrunken log2 fold change” value was -0.0302.

On to RRIRCRPPRLPRPRPRPHLWPRP, for which the “shrunken log2 fold change” value was determined as 0.129.

With RRIRIRPPRLPRPRPRPDCNPRP, the “shrunken log2 fold change” value was -0.164.

As for RRIRDRPPRLPRPRPRPYKEPRP, the “shrunken log2 fold change” value was -0.372.

For the sequence RRIRIRPPRLPRPRPRPARAPRP, the “shrunken log2 fold change” value is 0.307.

Regarding RRIRWRPPRLPRPRPRPSRHPRP, the “shrunken log2 fold change” value is 0.0203.

In the case of RRIRWRPPRLPRPRPRPQQDPRP, the “shrunken log2 fold change” value is 0.0825.

As for RRIRCRPPRLPRPRPRPRINPRP, the “shrunken log2 fold change” value is -0.0891.

RRIRVRPPRLPRPRPRPCYKPRP: the “shrunken log2 fold change” value is -0.691.

In the case of RRIRTRPPRLPRPRPRPCAHPRP, the “shrunken log2 fold change” value is -0.209.

As for RRIRWRPPRLPRPRPRPSAEPRP, the “shrunken log2 fold change” value stood at 1.14.

As to RRIRTRPPRLPRPRPRPNWCPRP, the “shrunken log2 fold change” value was -0.0796.

RRIRNRPPRLPRPRPRPIPVPRP: the “shrunken log2 fold change” value worked out at 1.22.

RRIRHRPPRLPRPRPRPTPFPRP: the “shrunken log2 fold change” value stood at 0.177.

As to RRIRIRPPRLPRPRPRPRILPRP, the “shrunken log2 fold change” value is -0.188.

Consider RRIRKRPPRLPRPRPRPYFIPRP, for which the “shrunken log2 fold change” value was -0.515.

For the sequence RRIRLRPPRLPRPRPRPMQVPRP, the “shrunken log2 fold change” value is -0.0149.

Regarding RRIRCRPPRLPRPRPRPWMIPRP, the “shrunken log2 fold change” value is -0.0852.

RRIRQRPPRLPRPRPRPLFIPRP: the “shrunken log2 fold change” value was -0.673.

For the sequence RRIRLRPPRLPRPRPRPQKHPRP, the “shrunken log2 fold change” value was -0.299.

For RRIRNRPPRLPRPRPRPCENPRP, the “shrunken log2 fold change” value is -0.0018.

In the case of RRIRLRPPRLPRPRPRPDFEPRP, the “shrunken log2 fold change” value was -0.0246.

On to RRIRDRPPRLPRPRPRPWGTPRP, for which the “shrunken log2 fold change” value was 0.0812.

Regarding RRIRKRPPRLPRPRPRPVSIPRP, the “shrunken log2 fold change” value is -0.0178.

In the case of RRIRERPPRLPRPRPRPTQFPRP, the “shrunken log2 fold change” value is -0.118.

Regarding RRIRKRPPRLPRPRPRPRHNPRP, the “shrunken log2 fold change” value is -0.241.

For RRIRHRPPRLPRPRPRPKTKPRP, the “shrunken log2 fold change” value stood at 0.0995.

As for RRIRFRPPRLPRPRPRPIISPRP, the “shrunken log2 fold change” value was -0.332.

Consider RRIRCRPPRLPRPRPRPLRHPRP, for which the “shrunken log2 fold change” value came to 0.479.

Regarding RRIRVRPPRLPRPRPRPVSFPRP, the “shrunken log2 fold change” value is -0.126.

As for RRIRCRPPRLPRPRPRPNAAPRP, the “shrunken log2 fold change” value turned out to be 0.975.

Turning to RRIRDRPPRLPRPRPRPRLTPRP, the “shrunken log2 fold change” value is 0.41.

RRIRGRPPRLPRPRPRPPHCPRP: the “shrunken log2 fold change” value amounted to 0.902.

RRIRHRPPRLPRPRPRPSQYPRP: the “shrunken log2 fold change” value was -0.372.

Turning to RRIRGRPPRLPRPRPRPPCHPRP, the “shrunken log2 fold change” value came to 0.429.

Turning to RRIRVRPPRLPRPRPRPMKRPRP, the “shrunken log2 fold change” value came to 0.0336.

With RRIRCRPPRLPRPRPRPLREPRP, the “shrunken log2 fold change” value was 0.562.

On to RRIRNRPPRLPRPRPRPREVPRP, for which the “shrunken log2 fold change” value worked out at 0.00782.

Turning to RRIRWRPPRLPRPRPRPYHYPRP, the “shrunken log2 fold change” value worked out at 0.0463.

With RRIRMRPPRLPRPRPRPLLTPRP, the “shrunken log2 fold change” value was determined as 2.33.

In the case of RRIRDRPPRLPRPRPRPVFLPRP, the “shrunken log2 fold change” value was -0.208.

Take RRIRERPPRLPRPRPRPNMAPRP: the “shrunken log2 fold change” value is -0.163.

RRIRMRPPRLPRPRPRPDQLPRP: the “shrunken log2 fold change” value worked out at 0.391.

On to RRIRHRPPRLPRPRPRPELGPRP, for which the “shrunken log2 fold change” value is -0.101.

Turning to RRIRNRPPRLPRPRPRPHDKPRP, the “shrunken log2 fold change” value is -0.313.

In the case of RRIRNRPPRLPRPRPRPIRSPRP, the “shrunken log2 fold change” value is -0.389.

As for RRIRNRPPRLPRPRPRPTLLPRP, the “shrunken log2 fold change” value is -0.168.

Take RRIRVRPPRLPRPRPRPATEPRP: the “shrunken log2 fold change” value was -0.0882.

Consider RRIRERPPRLPRPRPRPDTAPRP, for which the “shrunken log2 fold change” value was -0.131.

With RRIRPRPPRLPRPRPRPNDHPRP, the “shrunken log2 fold change” value was -0.386.

On to RRIRYRPPRLPRPRPRPNQMPRP, for which the “shrunken log2 fold change” value is -0.194.

With RRIRWRPPRLPRPRPRPDMFPRP, the “shrunken log2 fold change” value is -0.0661.

On to RRIRTRPPRLPRPRPRPATSPRP, for which the “shrunken log2 fold change” value was -0.12.

As to RRIRKRPPRLPRPRPRPRRDPRP, the “shrunken log2 fold change” value was determined as 0.491.

For the sequence RRIRRRPPRLPRPRPRPINNPRP, the “shrunken log2 fold change” value was -0.407.

In the case of RRIRNRPPRLPRPRPRPCYYPRP, the “shrunken log2 fold change” value is -0.387.

As for RRIRMRPPRLPRPRPRPTWLPRP, the “shrunken log2 fold change” value turned out to be 0.266.

Regarding RRIRFRPPRLPRPRPRPLAEPRP, the “shrunken log2 fold change” value was -0.0472.

Turning to RRIRWRPPRLPRPRPRPHDHPRP, the “shrunken log2 fold change” value was -0.152.

In the case of RRIRQRPPRLPRPRPRPCTVPRP, the “shrunken log2 fold change” value is -0.521.

On to RRIRIRPPRLPRPRPRPHGWPRP, for which the “shrunken log2 fold change” value was 0.0102.

In the case of RRIRERPPRLPRPRPRPTWTPRP, the “shrunken log2 fold change” value is -0.07.

As to RRIRWRPPRLPRPRPRPPSVPRP, the “shrunken log2 fold change” value worked out at 0.171.

On to RRIRCRPPRLPRPRPRPQQWPRP, for which the “shrunken log2 fold change” value is -0.0268.

On to RRIRFRPPRLPRPRPRPAPRPRP, for which the “shrunken log2 fold change” value was determined as 0.84.

Regarding RRIRHRPPRLPRPRPRPWWRPRP, the “shrunken log2 fold change” value was 0.219.

As for RRIRWRPPRLPRPRPRPYEFPRP, the “shrunken log2 fold change” value is -0.00843.

As to RRIRSRPPRLPRPRPRPTDIPRP, the “shrunken log2 fold change” value is -0.489.

In the case of RRIRARPPRLPRPRPRPCCMPRP, the “shrunken log2 fold change” value is -0.0671.

Consider RRIRARPPRLPRPRPRPSGKPRP, for which the “shrunken log2 fold change” value was -0.0838.

Consider RRIRMRPPRLPRPRPRPNSKPRP, for which the “shrunken log2 fold change” value was -0.129.

For the sequence RRIRRRPPRLPRPRPRPPHRPRP, the “shrunken log2 fold change” value is 1.36.

As for RRIRWRPPRLPRPRPRPGRCPRP, the “shrunken log2 fold change” value worked out at 0.897.

In the case of RRIRNRPPRLPRPRPRPVQRPRP, the “shrunken log2 fold change” value was -0.186.

As for RRIRLRPPRLPRPRPRPTMKPRP, the “shrunken log2 fold change” value was -0.0755.

As for RRIRDRPPRLPRPRPRPSVTPRP, the “shrunken log2 fold change” value stood at 0.0709.

Regarding RRIRWRPPRLPRPRPRPYWVPRP, the “shrunken log2 fold change” value is -0.294.
